Experiment [1] has as its target T1, recombinant His-Strep tagged human Tyro3 extracellular domain (human, UniProt Q06418 41-429).
T1 construct: also called hTyro3 ECD; full Tyro3 ECD
T1 sequence: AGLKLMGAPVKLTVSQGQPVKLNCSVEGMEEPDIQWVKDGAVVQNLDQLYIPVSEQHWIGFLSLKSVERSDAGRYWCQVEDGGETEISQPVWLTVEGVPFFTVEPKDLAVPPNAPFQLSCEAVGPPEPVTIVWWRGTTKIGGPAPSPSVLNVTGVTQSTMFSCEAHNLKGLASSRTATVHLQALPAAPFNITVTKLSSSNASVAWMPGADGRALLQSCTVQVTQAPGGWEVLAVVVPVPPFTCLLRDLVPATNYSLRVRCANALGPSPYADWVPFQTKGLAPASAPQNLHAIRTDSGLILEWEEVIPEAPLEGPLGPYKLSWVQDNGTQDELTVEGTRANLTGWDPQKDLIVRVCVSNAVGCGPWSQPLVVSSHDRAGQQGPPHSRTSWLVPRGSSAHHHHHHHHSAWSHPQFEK
Put plainly: BLI (Octet K2), IgG on AHC tips, hTyro3 ECD analyte, 1:1 global fit; kdis(1/s); kdis Error 6,46E-05. Here is the method: (§1) Affinity determinations were performed using biolayer interferometry on an Octet K2 instrument (Pall/ForteBio) equipped with anti-Human Kinetics (AHC) disposable fiber-optic biosensor tips. All experiments were conducted at 30° C. in the recommended Fortebio running buffer (PBS with 0.1% (w/v) bovine serum albumin (BSA) and 0.02% (v/v) Tween_20). This buffer was also used for dilution of ligand (here the antibody) and of the analyte (here the extra cellular domain of human Tyro3 protein). Samples in a 96-well microplates (No. Black polypropylene low binding plates, Greiner Bio-One, Frickenhausen, Germany) were agitated at 1000 rpm. […] Between measurements, the anti-human Tyro3 biosensor surfaces were regenerated by exposing them to 3 cycles of 5 sec in 10 mM glycine, pH 1.5, followed by 5 sec in PBS. Association phase was measured for 300 seconds, dissociation phase depending on the interaction for 300 seconds depending on dissociation step. […] Affinity, association (kon) and dissociation rate constants (koff) for each antibody were calculated applying a 1:1 interaction model fitting global, Rmax linked by sensor) on the ForteBio data analysis software 9.0.

The target in experiment [2] is T1, recombinant His-Strep tagged human …. Put plainly: BLI (Octet K2), 1:1 global fit; analyte concentration of this kobs not given. Here is the method:
Affinity determinations were performed using biolayer interferometry on an Octet K2 instrument (Pall/ForteBio) equipped with anti-Human Kinetics (AHC) disposable fiber-optic biosensor tips. All experiments were conducted at 30° C. in the recommended Fortebio running buffer (PBS with 0.1% (w/v) bovine serum albumin (BSA) and 0.02% (v/v) Tween_20). This buffer was also used for dilution of ligand (here the antibody) and of the analyte (here the extra cellular domain of human Tyro3 protein). Samples in a 96-well microplates (No. Black polypropylene low binding plates, Greiner Bio-One, Frickenhausen, Germany) were agitated at 1000 rpm. […] Between measurements, the anti-human Tyro3 biosensor surfaces were regenerated by exposing them to 3 cycles of 5 sec in 10 mM glycine, pH 1.5, followed by 5 sec in PBS. Association phase was measured for 300 seconds, dissociation phase depending on the interaction for 300 seconds depending on dissociation step. All measurements were corrected for baseline drift using the double reference substraction, that is to say by subtracting a control sensor without ligand exposed to each concentration of the extra cellular domain of human Tyro3 protein and a reference well with ligand submitted to running buffer only. Affinity, association (kon) and dissociation rate constants (koff) for each antibody were calculated applying a 1:1 interaction model fitting global, Rmax linked by sensor) on the ForteBio data analysis software 9.0.
For orientation: Biolayer interferometry detects binding as a change in optical thickness at a sensor tip.

Experiment [3] shares this target. Put plainly: BLI (Octet K2), IgG on AHC tips, hTyro3 ECD analyte, 1:1 global fit; KD Error 9,68E-10. Here is the method: as §1
The target in experiment [4] is T2, cynomolgus Tyro3 ECD, His-Strep tagged.
T2 construct: also called cyno TYRO3 ECD 8hisstrep
T2 extracellular domain: T1 sequence with V67A, I191V, A309G, R376H
Put plainly: sandwich ELISA, Strep-tagged cynomolgus Tyro3 ECD captured on StrepMAB plate, IgG 3-fold from 3 µg/mL, anti-human IgG1-HRP. On the procedure:
[The procedure below names another species; the source lists this species under the same test.] (§2) A double sandwich ELISA was developed. This assay consisted in measuring the binding of the anti-Tyro3 antibodies to be tested on immobilized strep-tagged entire human Tyro3 ECD captured directly on ELISA plate pre-coated with an anti-strep mAb (StrepMAB-Immo coated microplates from IBA biotech). Briefly, the 96 wells of StrepMAB-Immo coated microplate were washed three times with 300 μL of the PBS Tween 0.2% (referred as ELISA washing solution). The capture of an excess of purified strep tagged hTyro3 ECD protein was achieved by a one hour incubation at room temperature. In these experiments, 3 μg of purified protein diluted in PBS, BSA 1% (referred as ELISA diluent solution) were immobilized per well. The wells were washed three times with 300 μL of the washing solution. The non-specific binding sites on the well surface were blocked during 60 min at room temperature with 200 μL/well of blocking solution (PBS, BSA 3%). The wells were washed five times with 300 μL of the washing solution. Then, 100 μl (in duplicates) of the different concentrations of anti-Tyro3 antibodies to be tested diluted in ELISA diluent solution, were added per well and allowed to incubate during 1 hour at room temperature. An Irrelevant control IgG2656 was also added in this experiment. For anti-Tyro3 antibodies in the ScFv format, experiments were performed with 6 concentrations in duplicates (FIG. 3A). For anti-Tyro3 antibodies in the IgG format, experiments were performed with 9 concentrations in duplicates (FIG. 3B). […] For IgGs experiments, starting concentration for first dilution was 3 μg/ml and then dilutions of 3 fold in the ELISA diluent solution were performed. The wells were washed five times with 300 μL of the washing solution. […] The mix was allowed to incubated 60 min at room temperature.
For orientation: An ELISA detects its analyte on a solid surface through an enzyme-linked reagent.

The target in experiment [5] is T1, recombinant His-Strep tagged human …. Put plainly: BLI (Octet K2), IgG on AHC tips, hTyro3 ECD analyte, 1:1 global fit; kon Error 1,63E+03. Here is the method:
as §1

Experiment [6] has the same target. The experiment can be described thus: sandwich ELISA, Strep-tagged hTyro3 ECD captured on StrepMAB plate, IgG 3-fold from 3 µg/mL, anti-human IgG1-HRP. On the procedure:
as §2

The target in experiment [7] is T3, recombinant human Tyro3 on transfected HEK293 cells (human, UniProt Q06418).
T3 construct: membrane receptor on HEK293 cells; untransfected HEK293 cells (endogenous Tyro3) serve as comparison; also called Tyro3-transfected cells
T3 sequence (receptor, looked up): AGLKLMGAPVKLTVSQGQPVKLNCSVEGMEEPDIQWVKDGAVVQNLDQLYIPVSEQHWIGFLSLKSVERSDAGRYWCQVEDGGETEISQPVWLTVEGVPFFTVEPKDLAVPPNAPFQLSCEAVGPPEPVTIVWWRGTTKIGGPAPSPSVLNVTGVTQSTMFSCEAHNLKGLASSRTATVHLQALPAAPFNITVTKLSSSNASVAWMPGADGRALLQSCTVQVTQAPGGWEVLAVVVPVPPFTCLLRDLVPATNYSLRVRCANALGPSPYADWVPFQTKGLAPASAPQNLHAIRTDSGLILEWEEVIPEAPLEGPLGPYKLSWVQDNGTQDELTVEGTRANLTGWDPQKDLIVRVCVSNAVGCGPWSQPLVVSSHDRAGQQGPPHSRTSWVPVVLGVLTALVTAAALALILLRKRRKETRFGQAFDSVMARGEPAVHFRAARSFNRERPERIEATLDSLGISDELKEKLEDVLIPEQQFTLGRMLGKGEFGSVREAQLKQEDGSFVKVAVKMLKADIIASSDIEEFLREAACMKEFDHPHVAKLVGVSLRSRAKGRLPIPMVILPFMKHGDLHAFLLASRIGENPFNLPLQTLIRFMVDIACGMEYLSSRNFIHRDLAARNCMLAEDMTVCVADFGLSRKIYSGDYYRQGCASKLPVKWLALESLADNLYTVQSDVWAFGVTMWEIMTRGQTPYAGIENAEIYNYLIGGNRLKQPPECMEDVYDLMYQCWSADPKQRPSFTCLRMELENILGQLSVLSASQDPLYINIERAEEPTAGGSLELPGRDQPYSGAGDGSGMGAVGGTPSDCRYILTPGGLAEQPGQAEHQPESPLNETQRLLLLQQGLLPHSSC
Put plainly: flow cytometry, 1 µg IgG per 5E5 live HEK293 cells, PE anti-human lambda. Here is the method: FIG. 9: Binding of anti-Tyro3 IgGs in living cells. HEK293 cells transfected to express recombinant human Tyro3 and HEK293 untransfected cells were stained with the Live-Dead NIR dye and either incubated with the TYRO 3-specific MAB859 monoclonal antibody, its isotype control (upper panels) or to individual anti-Tyro3 IgG (middle and bottom panels). IgG isotype control is IGX2656. […] Data were acquired using an ARIA III flow cytometer (Becton Dickinson) and analyzed using the Kaluza software (Beckman Coulter). Histograms shown are restricted to live cells that show a characteristic size and granulometry of HEK293 cells. Anti-Tyro3 IgG Tyro3-specific binding is shown by fluorescence intensity increase of Tyro3-transfected cells (black line) compared to untransfected cells (grey line).
To determine the individual IgG ability to further bind Tyro3-transfected cells than untransfected cells, 5^E5 untransfected and Tyro3-transfected cells were exposed to Live-Dead NIR dye (Life Technologies, #L10119) and 1 μg of each IgX in PBS for 30 minutes at 4° C. […] Cells were washed and PE fluorescence of at least 10,000 live cells was immediately recorded on an ARIA III flow cytometer (Beckton Dickinson) (middle and bottom panels of FIG. 9). IgG ability to bind overexpressed Tyro3 was determined with overlay histograms showing PE expression profile of untransfected and Tyro3-transfected cell. […]

The target in experiment [8] is T1, recombinant His-Strep tagged human …. The experiment can be described thus: BLI (Octet K2), IgG on AHC tips, hTyro3 ECD analyte, 1:1 global fit; kon Error 9,23E+02. Here is the method: as §1
Experiment [9] has the same target. Put plainly: BLI (Octet K2), IgG on AHC tips, hTyro3 ECD analyte, 1:1 global fit; KD Error 2,48E-09. Here is the method:
as §1

The target is the same in experiment [10]. Put plainly: BLI (Octet K2), IgG on AHC tips, hTyro3 ECD analyte, 1:1 global fit; kdis(1/s); kdis Error 1,11E-04. Here is the method:
as §1

These results are taken from patent publication US20180105596A1 (ELSALYS BIOTECH, published 2018).

Substitutions are numbered along the chain they refer to.

B1: IgG2410 (antibody, V domains shown)
VH: EVQLVQSGADVKKPGASLTISCQASGYTFTDYWISWVRQKPGKGLEWMGQIVPRASRTNYGPSFQGHVTISADRSTATAYLQWRSLEASDTAMYYCVRPYFQTSGGTIPEYYQHWGPGTLVTVSS
VL: SYELTQPPSVSVSPGQTARITCSGDALPKKYAYWYQQKSGQAPVLVIYEDEKRASGIPERFSGSSSGTMATLTISGAQVEDEADYYCYSQERNGNYAVFGGGTKLTVL
notes: also called IGX2410
A word on the koff: it is the first-order rate constant of dissociation. The Kd is the free concentration of one partner at which half of the binding sites on the other are occupied at equilibrium, for simple one-to-one binding. The term kon denotes a measure of how fast the partners come together. As for B1, the koff in experiment [1] was found to be 0.00704 s⁻¹. In experiment [2], the kobs turned out to be 0.0145 s⁻¹. The Kd in [3] was found to be 0.0589 µM. In [4], the binding result is recorded as “binds”. In addition, the kon in experiment [5] was 120000 M⁻¹ s⁻¹.

B2: IgG2717 (antibody, V domains shown)
VH: EVQLVQSGADVKKPGASLTISCQASGYTFTDYWISWVRQKPGKGLEWMGEIFLPPSTTVYGPSFQGHVTISADRSTATAYLQWRSLEASDTAMYYCVRQTRLTSGGTIPEYYQHWGPGTLVTVSS
VL: B1 VL with E51N, A54G, Q90K, E91S, R92P, N93E, A97M
notes: also called IGX2717
B2: the binding result in experiment [6], in experiment [7] and in experiment [4] was “binds” each time.

B3: IgG2411 (antibody, V domains shown)
VH: EVQLVQSGADVKKPGASLTISCQASGYTFTDYWISWVRQKPGKGLEWMGSITRSSSRTHYGPSFQGHVTISADRSTATAYLQWRSLEASDTAMYYCVRGYTHLRTWGPGTLVTVSS
VL: B1 VL with E51S, A54S, Q90A, E91N, R92Q, N93R, A97M
notes: also called IGX2411
Broadly, the EC50 (read off the curve) is the concentration giving half of the maximal effect. In the case of B3, the “EC50 (read off the curve)” value in experiment [6] and in experiment [4] was approximately 0.02 mg/L each time.

B4: IgG2412 (antibody, V domains shown)
VH: B1 VH with Q50R, V52R, R54L, A55L, R57H, N59M, P99S, Y100W, F101L, Q102A
VL: B1 VL with E51A, A54V, Q90A, E91S, R92A, A97R
notes: also called IGX2412
B4: the kobs in [2] stood at 0.0175 s⁻¹. Besides, the kon in experiment [8] was 67400 M⁻¹ s⁻¹. In addition, the Kd in [9] was found to be 0.135 µM. The koff in [10] stood at 0.0091 s⁻¹. In addition, the binding result in experiment [4] is “binds”.
